Molecular target: wild-type HCMV gB expressed in HEK293T cells (human cytomegalovirus (strain not stated)) (UniProt P06473)
Test: far-Western, overlay or dot blot

DC-SIGN-Fc, sequence (Q9NNX6 59-404): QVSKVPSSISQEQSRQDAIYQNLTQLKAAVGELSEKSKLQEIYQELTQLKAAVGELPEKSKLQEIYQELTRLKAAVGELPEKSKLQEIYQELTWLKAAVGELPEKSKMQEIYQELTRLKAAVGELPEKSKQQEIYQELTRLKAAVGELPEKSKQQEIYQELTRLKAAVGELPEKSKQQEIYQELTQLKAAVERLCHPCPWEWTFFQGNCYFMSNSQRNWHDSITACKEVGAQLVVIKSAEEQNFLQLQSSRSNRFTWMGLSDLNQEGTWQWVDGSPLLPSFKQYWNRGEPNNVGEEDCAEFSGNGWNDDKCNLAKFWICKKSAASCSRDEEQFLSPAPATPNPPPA
UniProt P06473, sequence (P06473 32-906): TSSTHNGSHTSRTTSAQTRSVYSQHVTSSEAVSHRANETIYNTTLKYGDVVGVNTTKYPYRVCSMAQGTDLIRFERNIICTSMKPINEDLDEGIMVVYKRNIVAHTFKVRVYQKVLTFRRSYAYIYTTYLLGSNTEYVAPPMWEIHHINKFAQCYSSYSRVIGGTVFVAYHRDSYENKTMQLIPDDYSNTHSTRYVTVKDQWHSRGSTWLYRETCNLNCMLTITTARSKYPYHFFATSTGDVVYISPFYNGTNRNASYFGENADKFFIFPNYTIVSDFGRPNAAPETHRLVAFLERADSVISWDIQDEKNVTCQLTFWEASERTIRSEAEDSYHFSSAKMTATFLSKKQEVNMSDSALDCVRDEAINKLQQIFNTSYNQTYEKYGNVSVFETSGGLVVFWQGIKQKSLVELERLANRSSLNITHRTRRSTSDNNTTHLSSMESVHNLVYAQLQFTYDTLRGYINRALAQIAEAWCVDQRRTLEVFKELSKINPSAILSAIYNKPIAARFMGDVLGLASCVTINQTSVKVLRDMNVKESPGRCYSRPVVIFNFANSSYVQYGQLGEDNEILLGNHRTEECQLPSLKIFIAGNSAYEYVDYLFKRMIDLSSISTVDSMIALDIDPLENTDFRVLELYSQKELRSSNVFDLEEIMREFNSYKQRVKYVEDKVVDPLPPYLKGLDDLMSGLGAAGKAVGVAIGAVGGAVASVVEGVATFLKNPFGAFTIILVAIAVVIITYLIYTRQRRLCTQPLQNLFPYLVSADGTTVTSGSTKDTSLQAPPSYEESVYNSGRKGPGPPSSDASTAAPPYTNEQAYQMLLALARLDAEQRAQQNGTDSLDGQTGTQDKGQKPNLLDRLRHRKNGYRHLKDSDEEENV

## DC-SIGN-Fc (from UniProt Q9NNX6 59-404) (Fc fusion)
  DC-SIGN-Fc binding normalized on gB expression (ratio): 1.15

— paper PMC6049025
